From the supplement of paper PMC9170038

System: MS2 coat protein
Assay: apparent KD of MS2 coat protein; designed switch direction (-1 OFF switch, 1 ON switch): -1; higher = weaker reporter binding
Summary of the method: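 RNA switches sharing common flanks were transcribed by stalled E. coli RNA polymerase on Illumina chips. A doubling series of SNAP-549-labelled MS2 coat protein, from 0.7 or 1.5 nM to 3 µM, was applied in Tris-HCl pH 7.5 buffer with KCl, MgCl2, BSA, DTT, tRNA and Tween-20. Each step lasted 0.8–1.5 h at the bottom of the series and 10–20 min at the top. Normalised cluster fluorescence was curve-fitted, giving apparent KD as the per-design median over clusters.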

[1] = input ligand: microRNA oligo, concentration not stated
[2] = Eterna round: R95, input ligand: FMN 200 uM
[3] = Eterna round: R95, input ligand: microRNA oligo, concentration not stated
[4] = Eterna round: R95, input ligand: none

Row | Sequence | apparent KD of MS2 coat protein (input ligand: FMN 200 uM) [nM] | apparent KD of MS2 coat protein [1] [nM] | apparent KD of MS2 coat protein (input ligand: none) [nM] | apparent KD of MS2 coat protein [2] [nM] | apparent KD of MS2 coat protein [3] [nM] | apparent KD of MS2 coat protein [4] [nM]
1 | GCGGGCCCGGGAGGAUAUACAUGAGGAUCACCCAUGUGGGCCCGGGCCCGCGGGCCCGGGCCCGUGUAGAAGGCCCGGGCCCGC [-64.9, -63.3 kcal, A 14%] (Eterna round: R96, puzzle: Exclusion NG 2) | 28 | 10.1 | 14.2 | – | – | –
2 | GCGGUACAUGAGGAUCACCCAUGUCAGGAUAUCCGCUGUUUGUUGAUAAGCAGGCGGUGGAGAAGGGACUUCGC [-26.7, -26 kcal, 23% A] (Eterna round: R97, puzzle: Exclusion 1) | 39.7 | – | 33.8 | – | – | –
3 | GCGUAUGAGCAGGAUAUCCGACGGGAAUCCAAAGGAGAAGGGCUCACAUGAGGAUCACCCAUGUGGUCCAAAAC [Agediat] (puzzle: Exclusion 6) | – | – | – | 109 | 24 | 27.3
4 | GCGUGACAUGAGGAUCACCCAUGUGAGGAUAUCUGGAUACUCUUUAUUUUAGAUAUCCAGAGAAGGCACAUGCU [Ex1-3: 4Z] (puzzle: Exclusion 1) | – | – | – | – | 191 | –
5 | GCUAGGCAUGUCAGGAUAUGCAGAUCCUUGGAUCUGCAGAAGGGACAUGAGGAUCACCCAUGUGCCAACCUAGC [Mat - Exclusion 4 - JL Mod - D11] (Eterna round: R97, puzzle: Brourd's mod of Exclusion 4) | 609 | – | 47 | – | – | –
6 | GCUAUGGGAGGAUAUACAUGAGGAUCACCCAUGUGUAGAGCAUACGCGCGCAUUAACAGUAGAAGGCCCUGCGU [Eternabot (L1) Solution 23] (Eterna round: R97, puzzle: Exclusion 3) | 50.7 | – | 49.4 | – | – | –
7 | GCUCACGCAGGAUAUACAUGAGGAUCACCCAUGUUCGAAGGGCGUGGGUACAAAGUCUGUAGAAGGGCGAAAAU [Edrereve] (Eterna round: R97, puzzle: Exclusion 3) | 20.6 | – | 17.4 | – | – | –
8 | GCUCGAAGGAGUGGGAGCAACAUGAGGAUCACCCAUGUGCGGCUAUUUCAUGCUCGUCUUAAAGCUUUGCCCUAGCC [Eternabot (Original) Solution 40] (Eterna round: R97, puzzle: Sensor, turn-off variant 1) | 17.2 | – | 18.5 | – | – | –
9 | GCUCGCGGGCAAGGAUAUCCUACGCUGUUCUGGUUCGUGUCUGUUACAUGAGGAUCACCCAUGUGGGAGAAGGUGCACCAGGGU [Design 49] (Eterna round: R96, puzzle: Exclusion NG 2) | 17.5 | 12.4 | 20.1 | – | – | –
10 | GCUGGACAAGGAUAUACAUGAGGAUCACCCAUGUGAUCAGCAGUCCUCGGACUGCAAUGUAGAAGGUGUCCAGC [E3/1-C2] (Eterna round: R97, puzzle: Exclusion 3) | 38.9 | – | 198 | – | – | –
11 | GCUGGAGCAGGAUAUUCAAUAUCACACAUGAGGAUCACCCAUGUCCAGCGAAAGCUGGAGGGAGAAGGGCUCUAGC [Mat - Exclusion 5 - Eli mod - D98] (puzzle: Exclusion 5) | – | – | – | 17.6 | 60.4 | 76
12 | GCUGGUCAAGGAUAUGCAUUCGUGCUUCGGCACGUAAGGUCACAUGAGGAUCACCCAUGUAGAAGGUGACCAGC [E2/6-C1] (Eterna round: R97, puzzle: Exclusion 2) | 31.6 | – | 20.9 | – | – | –
13 | GCUGGUCGAGGAUAUGCAUAUACUGGAUACAGUGGAAGGUCACAUGAGGAUCACCCAUGUAGAAGGCGACUAGC [EX2 #37] (Eterna round: R97, puzzle: Exclusion 2) | 558 | – | 463 | – | – | –
14 | GCUUCGGCAGGAUAUACAUGAGGAUCACCCAUGUGCUUCGGCUUGAUCAAGUUGAAGUGUAGAAGGGUUGAAGU [-25.5, -22.5 kcal, 26% A, 3 bis, 3 bis] (Eterna round: R97, puzzle: Exclusion 3) | 36.8 | – | 78.7 | – | – | –
